The results in this text go back to patent US20240400657A1 (MorphoSys, published 2024).

The target of assay [1] is T1, full-length human C3aR expressed on CHO Flp-In cells (human, UniProt Q16581 1-482).
T1 construct: also called C3a anaphylatoxin chemotactic receptor
T1 sequence: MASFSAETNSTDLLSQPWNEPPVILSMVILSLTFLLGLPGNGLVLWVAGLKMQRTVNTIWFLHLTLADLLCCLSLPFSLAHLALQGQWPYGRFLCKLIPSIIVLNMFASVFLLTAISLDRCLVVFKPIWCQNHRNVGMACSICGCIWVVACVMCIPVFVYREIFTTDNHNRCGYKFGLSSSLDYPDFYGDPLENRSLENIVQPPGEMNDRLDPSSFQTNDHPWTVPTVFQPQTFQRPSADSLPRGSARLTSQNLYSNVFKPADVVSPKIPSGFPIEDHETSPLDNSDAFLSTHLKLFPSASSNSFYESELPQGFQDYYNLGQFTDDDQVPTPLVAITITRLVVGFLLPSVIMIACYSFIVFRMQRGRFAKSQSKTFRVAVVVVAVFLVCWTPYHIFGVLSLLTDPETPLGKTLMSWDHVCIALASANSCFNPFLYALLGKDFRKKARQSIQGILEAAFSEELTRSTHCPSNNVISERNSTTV
Kind of assay: FACS, CHO Flp-In cells expressing human C3aR, single IgG concentration.

The target in assay [2] is T2, full length mouse C5aR stably expressed on CHO Flp-In cells (mouse (Mus musculus), UniProt P30993 1-351).
T2 sequence: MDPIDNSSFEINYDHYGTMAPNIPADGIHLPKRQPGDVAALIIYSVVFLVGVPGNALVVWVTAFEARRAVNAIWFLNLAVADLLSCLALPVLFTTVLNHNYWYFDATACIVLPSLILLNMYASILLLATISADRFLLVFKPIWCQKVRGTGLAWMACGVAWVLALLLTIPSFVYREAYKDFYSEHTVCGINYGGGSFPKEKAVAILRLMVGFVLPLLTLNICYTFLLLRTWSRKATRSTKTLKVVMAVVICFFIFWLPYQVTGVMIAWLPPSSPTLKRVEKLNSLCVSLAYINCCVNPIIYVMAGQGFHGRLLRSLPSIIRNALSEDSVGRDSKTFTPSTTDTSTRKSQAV
Put plainly: FACS, CHO Flp-In cells expressing murine C5aR, single IgG concentration.

The target in another assay is T3, Hemoglobin (h) (human).
T3 construct: '(h)' on the sheet read as human
Put plainly: Protein Panel Profiling (3P), MSD ECL, coated antigen, IgG 100 nM.

The target in the next assay is Lectin. The assay is described as above.
Assay [3] deals with T4, human C5aR_NT-bio peptide (human, biotin tag (position not given)).
T4 construct: Chemically synthesized linear peptide (Genscript); also called human C5aR N-terminal peptide; human C5aR peptide
T4 peptide: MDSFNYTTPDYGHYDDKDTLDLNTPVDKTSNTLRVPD
The assay is described as above.

The target in another assay is Lysozyme. Described as above.
Assay [4] addresses T5, Cell surface rec. 2_Fc (h).
T5 construct: identity not disclosed
The description is as above.
Experimental: (§1) 32 different proteins and controls were coated on two 384-well MSD standard plates at a concentration of 1.0 μg/mL at 4° C. over night. The coating solution was discarded and plates were blocked with 50 μL 3% (w/v) BSA in PBS for one hour at RT on a microtiter plate shaker (˜500 rpm) followed by three washing steps with 50 μL washing buffer (PBS with 0.05% (v/v) Tween 20). IgG samples were diluted to 100 nM and 10 nM in assay buffer (PBS with 0.5% (w/v) BSA, 0.05% (v/v) Tween 20). As controls, isotype control antibody MOR03207 (IgG1f_AEASS) and assay buffer were used. Samples and controls were added at 30 μL/well and incubated for three hours at RT on a microtiter plate shaker. The plates were washed three times and 30 μL detection antibody (ECL-labeled anti-human Fab) were added per well and incubated for one hour on a microtiter plate shaker (˜500 rpm). After washing the MSD plate and adding 35 μL/well MSD Read Buffer T with surfactant, electro-chemiluminescence signals were detected using a SECTOR® Imager S600 instrument (Meso Scale Diagnostics).
(§2) For evaluation, binding signals of the antibody sample to a certain protein were divided by the respective binding signals of the reference antibody MOR03207 resulting in a binding ratio (BR). The cumulative binding ratio (CBR) of all proteins except the controls (25 in total) was then calculated: CBR up to 150 indicates an IgG without detectable unspecific binding. Values above 150 indicates an IgG with increased unspecific binding compared to the reference antibody MOR03207.

In assay [5] the target is T6, C5aR expressed on purified cynomolgus neutrophils (cynomolgus monkey (Macaca fascicularis)).
T6 construct: Endogenous receptor on neutrophils from whole blood of three animals; also called cynomolgus C5aR expressed endogenously
T6 chain: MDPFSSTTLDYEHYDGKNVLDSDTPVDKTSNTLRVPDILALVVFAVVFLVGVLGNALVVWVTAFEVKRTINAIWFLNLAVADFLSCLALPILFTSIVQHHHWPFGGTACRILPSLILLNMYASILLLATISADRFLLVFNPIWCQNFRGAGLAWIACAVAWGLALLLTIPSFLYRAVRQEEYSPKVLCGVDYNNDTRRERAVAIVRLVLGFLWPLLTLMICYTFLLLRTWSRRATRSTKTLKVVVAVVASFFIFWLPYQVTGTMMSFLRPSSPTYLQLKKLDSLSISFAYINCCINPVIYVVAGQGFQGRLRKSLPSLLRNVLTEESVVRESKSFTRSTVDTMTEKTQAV
Put plainly: FACS on purified cynomolgus neutrophils, IgG titration.
Experimental: Neutrophils were purified from EDTA-whole blood samples using a MACSexpress® Neutrophil Isolation Cocktail from Miltenyi Biotec. Briefly, using this kit, cells are isolated using magnetic labeling and negative magnetic separation. […] Measurements were done at the FACS Array device. FACS data were evaluated using FlowJo™, entered into GraphPad® Prism (v4.0) and fitted to the sigmoidal dose-response curve using non-linear regression to calculate the EC50.

The target of another assay is T7, Human C1q (human, UniProt P02745 23-245; P02746 28-253; P02747 29-245).
T7 construct: mature; Plasma-derived complex; also called C1q protein; huC1q
Put plainly: BLI (Octet), IgG captured via anti-hu Fab CH1 kappa/lambda on SA sensors, C1q titrated.

Assay [6] has as its target T8, cynomolgus C5aR_NT-bio peptide (cynomolgus monkey, biotin tag (position not given)).
T8 construct: Chemically synthesized linear peptide (Genscript); also called cynomolgus C5aR N-terminal peptide; cynomolgus C5aR peptide
T8 peptide: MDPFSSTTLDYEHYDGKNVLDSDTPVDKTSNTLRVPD
Kind of assay: SPR (Biacore T200), IgG captured on anti-human-Fc, peptide as analyte, 1:1 fit, monovalent; value marked * (for ranking purposes; fast kon, fast koff).

The target of the next assay is cynomolgus transferrin (cynomolgus, UniProt A0A2K5UXZ0 20-695). Kind of assay: Octet based binding assay.
The next assay addresses rat transferrin (rat, UniProt P12346 20-698). Kind of assay: Octet based binding assay.
The target of assay [7] is T9, HIS6-mouse C5aR-HV1B1-GAG (mouse).
T9 construct: negative control; also called murine C5aR on VLPs; mouse C5aR expressed on virus-like-particles
Kind of assay: ELISA, coated VLPs expressing mC5aR, IgG titration, AttoPhos fluorescence.

The target of assay [8] is T10, Cynomolgus FcRn p51 [1-297]_AviHis/p14 biotinylated (cynomolgus monkey, UniProt Q8SPV9 24-298; Q6T672 21-119, biotinylated in vitro with BirA (Avi tag)).
T10 construct: Heterodimer; UniProt Q8SPV9 (p51)
Kind of assay: BLI (Octet HTX), biotinylated FcRn on SA sensors, IgG titrated, steady state fit, apparent KD, pH 7.2; ** slight binding at pH 7.2.
Text: 0.5 nm of biotinylated human, cynomolgus, mouse and rat FcRn were captured on streptavidin (SA) sensors (FortéBIO, Pall Life Sciences). […] All sensorgrams were fitted using Data Analysis Software 10.0 (FortéBIO, Pall Life Sciences) to determine the apparent affinity and the data was fitted with a steady state model.

The target in assay [9] is T11, full length cynomolgus C5aR stably expressed on CHO Flp-In cells (cynomolgus monkey (Macaca fascicularis)).
T11 chain: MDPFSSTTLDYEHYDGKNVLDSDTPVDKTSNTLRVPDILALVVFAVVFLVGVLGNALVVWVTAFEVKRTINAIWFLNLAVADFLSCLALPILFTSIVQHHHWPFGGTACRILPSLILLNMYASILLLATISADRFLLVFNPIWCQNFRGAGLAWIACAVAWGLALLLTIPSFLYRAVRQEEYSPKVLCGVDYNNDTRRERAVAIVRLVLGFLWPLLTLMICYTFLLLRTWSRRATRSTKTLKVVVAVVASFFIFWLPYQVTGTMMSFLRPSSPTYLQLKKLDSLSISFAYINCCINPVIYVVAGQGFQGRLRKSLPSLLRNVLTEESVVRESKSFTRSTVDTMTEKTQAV
Put plainly: KinExA on Flp-In CHO cells.
Experimental: Apparent KD determination on C5aR-expressing cells was performed at RT with a KinExA® 3200 instrument (Sapidyne Instruments). PBS (Gibco), supplemented with BSA (1 mg/mL) and 0.02% (v/v) NaN₃ was used as assay buffer. […] After equilibration, the samples were centrifuged and the supernatants were used for analysis. […] The apparent KD was obtained using KinExA® software and by “n-curve analysis,” which fits all of the given curves to a single KD value simultaneously.

T7 sequence (P02745 23-245, chain 1 of 3): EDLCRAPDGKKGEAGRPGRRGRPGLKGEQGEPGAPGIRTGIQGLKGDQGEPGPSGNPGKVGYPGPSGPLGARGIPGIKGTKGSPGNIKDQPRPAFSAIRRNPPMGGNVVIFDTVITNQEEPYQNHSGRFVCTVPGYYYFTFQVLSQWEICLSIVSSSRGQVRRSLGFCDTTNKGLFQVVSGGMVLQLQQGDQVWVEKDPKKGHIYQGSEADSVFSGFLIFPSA
T7 sequence (P02746 28-253, chain 2 of 3): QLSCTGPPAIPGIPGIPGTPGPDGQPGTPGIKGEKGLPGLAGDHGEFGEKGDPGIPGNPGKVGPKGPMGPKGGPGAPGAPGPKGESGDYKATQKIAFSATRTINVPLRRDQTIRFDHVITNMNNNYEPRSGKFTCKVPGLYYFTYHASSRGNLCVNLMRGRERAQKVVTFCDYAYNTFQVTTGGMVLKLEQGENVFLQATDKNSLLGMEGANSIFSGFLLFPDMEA
T7 sequence (P02747 29-245, chain 3 of 3): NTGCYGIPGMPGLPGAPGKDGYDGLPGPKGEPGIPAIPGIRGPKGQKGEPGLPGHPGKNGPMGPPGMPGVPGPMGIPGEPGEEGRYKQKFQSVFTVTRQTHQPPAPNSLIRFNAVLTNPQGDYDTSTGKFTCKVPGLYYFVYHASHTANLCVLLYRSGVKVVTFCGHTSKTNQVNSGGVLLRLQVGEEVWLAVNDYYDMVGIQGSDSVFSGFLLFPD
Chain of Lysozyme (P00698 19-147): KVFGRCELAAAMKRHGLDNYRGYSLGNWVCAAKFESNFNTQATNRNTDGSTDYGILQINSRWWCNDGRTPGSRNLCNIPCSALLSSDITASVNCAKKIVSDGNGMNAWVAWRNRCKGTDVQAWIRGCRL
T3 sequence (P69905 2-142, chain 1 of 2): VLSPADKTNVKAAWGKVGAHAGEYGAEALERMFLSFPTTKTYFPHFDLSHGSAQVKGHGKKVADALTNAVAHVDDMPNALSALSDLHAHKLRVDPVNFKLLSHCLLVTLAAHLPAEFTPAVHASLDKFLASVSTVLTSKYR
T3 sequence (P68871 2-147, chain 2 of 2, further chain): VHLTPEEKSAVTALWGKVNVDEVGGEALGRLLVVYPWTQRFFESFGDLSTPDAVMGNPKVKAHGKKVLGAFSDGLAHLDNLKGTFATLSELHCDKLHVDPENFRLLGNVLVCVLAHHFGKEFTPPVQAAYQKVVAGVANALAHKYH
Chain of rat transferrin (P12346 20-698 limits assumed): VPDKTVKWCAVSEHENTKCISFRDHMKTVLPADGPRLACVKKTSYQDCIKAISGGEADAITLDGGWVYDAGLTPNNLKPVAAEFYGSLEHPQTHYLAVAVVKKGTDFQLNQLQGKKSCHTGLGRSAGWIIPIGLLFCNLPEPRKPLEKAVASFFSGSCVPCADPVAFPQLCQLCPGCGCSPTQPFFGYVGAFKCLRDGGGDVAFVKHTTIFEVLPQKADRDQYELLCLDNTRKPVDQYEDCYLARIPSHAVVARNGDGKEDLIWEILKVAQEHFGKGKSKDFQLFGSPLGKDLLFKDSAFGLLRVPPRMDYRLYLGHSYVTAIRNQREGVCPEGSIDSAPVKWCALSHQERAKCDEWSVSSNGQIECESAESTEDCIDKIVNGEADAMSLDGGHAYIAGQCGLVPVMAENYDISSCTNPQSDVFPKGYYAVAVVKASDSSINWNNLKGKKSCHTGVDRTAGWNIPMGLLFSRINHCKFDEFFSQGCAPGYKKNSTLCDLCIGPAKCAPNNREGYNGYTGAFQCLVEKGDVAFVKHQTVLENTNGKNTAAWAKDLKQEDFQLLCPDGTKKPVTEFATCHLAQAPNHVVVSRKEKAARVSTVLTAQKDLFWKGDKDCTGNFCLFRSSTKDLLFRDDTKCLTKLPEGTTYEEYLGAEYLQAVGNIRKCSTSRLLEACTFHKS
Experimental for Hemoglobin (h): as §1, §2
Text for Human C1q: 2.0 nm of IgGs diluted in Octet® buffer were captured onto anti-hu Fab CH1 kappa/lambda (BAC) immobilised onto streptavidin (SA) sensors (FortéBIO, Pall Life Sciences). […] All sensorgrams were fitted using Data Analysis Software 9 (FortéBIO, Pall Life Sciences) to determine the apparent affinity. The data was fitted with a steady state model.
Experimental for Lectin: as §1, §2
Experimental for Lysozyme: as §1, §2

B1: MAB #2 (antibody, human IgG1, lambda)
heavy: EVQLVESGGGLVKPGGSLRLSCAASGFTFSSYAMHWVRQAPGKGLEWVGRIKSVAQGGTTDYAAHVKGRFTISRDDSKNTLYLQMNSLKTEDTAVYYCARVSHSTFDVWGQGTLVTVSSASTKGPSVFPLAPSSKSTSGGTAALGCLVKDYFPEPVTVSWNSGALTSGVHTFPAVLQSSGLYSLSSVVTVPSSSLGTQTYICNVNHKPSNTKVDKRVEPKSCDKTHTCPPCPAPEAEGAPSVFLFPPKPKDTLMISRTPEVTCVVVDVSHEDPEVKFNWYVDGVEVHNAKTKPREEQYNSTYRVVSVLTVLHQDWLNGKEYKCKVSNKALPSSIEKTISKAKGQPREPQVYTLPPSREEMTKNQVSLTCLVKGFYPSDIAVEWESNGQPENNYKTTPPVLDSDGSFFLYSKLTVDKSRWQQGNVFSCSVMHEALHNHYTQKSLSLSPGK
light: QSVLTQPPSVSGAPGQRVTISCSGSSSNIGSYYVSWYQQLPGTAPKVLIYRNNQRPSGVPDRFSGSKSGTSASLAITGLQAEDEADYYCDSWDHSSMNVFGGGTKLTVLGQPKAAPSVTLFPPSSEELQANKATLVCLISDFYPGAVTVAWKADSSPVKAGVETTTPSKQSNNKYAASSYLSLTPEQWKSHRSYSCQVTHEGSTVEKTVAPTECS
notes: lambda 1 light chain
As to B1, the binding result in assay [1] is “no binding (tested: 300 nM)”; in [2], “no binding (tested: 300 nM)”; in the assay with Human C1q it was “no binding (tested: 500 nM (highest C1q concentration))”; with cynomolgus transferrin it was “no binding”; with rat transferrin it was “no binding”. Further, the “binding ratio (signal / signal of MOR03207)” value in the assay with Hemoglobin (h) was 2; with Lectin, 2; in assay [3], 49; in the assay with Lysozyme, 2; in assay [4] it was 2. Besides, the response in [5] was half-maximal at 3.8 nM (EC50). For the same molecule, the Kd in assay [6] was 34000 nM. In assay [6], this molecule showed a koff of 0.145 s⁻¹. Moreover, the kon in [6] came out at 4290 M⁻¹ s⁻¹.

B2: MAB #1 (antibody, human IgG1, lambda)
heavy: EVQLVESGGGLVKPGGSLRLSCAASGFTFSSYAMHWVRQAPGKGLEWVGRIKSKAQGGTTDYAAHVKGRFTISRDDSKNTLYLQMNSLKTEDTAVYYCARVSFSTFDVWGQGTLVTVSSASTKGPSVFPLAPSSKSTSGGTAALGCLVKDYFPEPVTVSWNSGALTSGVHTFPAVLQSSGLYSLSSVVTVPSSSLGTQTYICNVNHKPSNTKVDKRVEPKSCDKTHTCPPCPAPEAEGAPSVFLFPPKPKDTLMISRTPEVTCVVVDVSHEDPEVKFNWYVDGVEVHNAKTKPREEQYNSTYRVVSVLTVLHQDWLNGKEYKCKVSNKALPSSIEKTISKAKGQPREPQVYTLPPSREEMTKNQVSLTCLVKGFYPSDIAVEWESNGQPENNYKTTPPVLDSDGSFFLYSKLTVDKSRWQQGNVFSCSVMHEALHNHYTQKSLSLSPGK
light: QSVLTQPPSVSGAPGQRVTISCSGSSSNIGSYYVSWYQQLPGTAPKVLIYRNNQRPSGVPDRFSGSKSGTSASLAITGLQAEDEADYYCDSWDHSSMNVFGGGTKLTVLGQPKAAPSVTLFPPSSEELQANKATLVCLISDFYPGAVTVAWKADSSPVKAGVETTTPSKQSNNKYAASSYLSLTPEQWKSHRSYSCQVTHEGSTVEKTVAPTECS
notes: lambda 1 light chain, VH3-15 framework
On to B2, for which the binding result in assay [1] is reported as “no binding (tested: 300 nM)”; in assay [2], “no binding (tested: 300 nM)”; in assay [7], “no binding (tested: ~300 nM)”; with Human C1q, “no binding (tested: 500 nM (highest C1q concentration))”; with cynomolgus transferrin it was “no binding”; with rat transferrin it was “no binding”. For the same molecule, the “binding ratio (signal / signal of MOR03207)” value with Hemoglobin (h) stood at 2; with Lectin it was 2; in [3], 84; with Lysozyme, 2; in [4], 2. The molecule also yielded an EC50 in [5] of 4.5 nM. The Kd in assay [8] amounted to 560 nM; in [6], 8200 nM. Further, in assay [9], the “fold weaker binding than to full-length human C5aR” value is about 20 fold. Further, in assay [6], the off-rate (koff) is 0.111 s⁻¹. Moreover, the kon in assay [6] worked out at 13600 M⁻¹ s⁻¹.
